The text below walks through data of patent US20130023423, “TRANSPOSON NUCLEIC ACIDS COMPRISING A CALIBRATION SEQUENCE FOR DNA SEQUENCING” (Finnzymes Oy, published 2013).

Common to all, as to conditions: chain copies: 4
Data set [1] has as its target T1, MuA transposase (UniProt P07636 P07636:1-663). Briefly: EMSA; transpososome complex band about 300 bp; 30 C 1 h, Tris pH 8, EDTA, NaCl, 10% DMSO; complexes fragment gDNA with 10 mM MgCl2 (FIG. 2).
The target in data set [2] is T1, MuA transposase. As to the kind of experiment: EMSA; worked well in complex formation and gDNA fragmentation; the cited figure shows fragmentation. (In general: Mobility shift assays separate free from complexed probe on a gel.)
Data set [3] addresses T1, MuA transposase. As to the kind of experiment: EMSA; complexes formed and active; 30 C 1 h.
Data set [4] concerns the target T1, MuA transposase. As to the kind of experiment: EMSA; no complex formed, no transposition activity; 30 C 1 h.
Data set [5] concerns the target T1, MuA transposase. As to the kind of experiment: EMSA; worked well in complex formation and gDNA fragmentation (FIG. 4).

T1 sequence (P07636 whole entry, the tested form may be a part, one chain of several): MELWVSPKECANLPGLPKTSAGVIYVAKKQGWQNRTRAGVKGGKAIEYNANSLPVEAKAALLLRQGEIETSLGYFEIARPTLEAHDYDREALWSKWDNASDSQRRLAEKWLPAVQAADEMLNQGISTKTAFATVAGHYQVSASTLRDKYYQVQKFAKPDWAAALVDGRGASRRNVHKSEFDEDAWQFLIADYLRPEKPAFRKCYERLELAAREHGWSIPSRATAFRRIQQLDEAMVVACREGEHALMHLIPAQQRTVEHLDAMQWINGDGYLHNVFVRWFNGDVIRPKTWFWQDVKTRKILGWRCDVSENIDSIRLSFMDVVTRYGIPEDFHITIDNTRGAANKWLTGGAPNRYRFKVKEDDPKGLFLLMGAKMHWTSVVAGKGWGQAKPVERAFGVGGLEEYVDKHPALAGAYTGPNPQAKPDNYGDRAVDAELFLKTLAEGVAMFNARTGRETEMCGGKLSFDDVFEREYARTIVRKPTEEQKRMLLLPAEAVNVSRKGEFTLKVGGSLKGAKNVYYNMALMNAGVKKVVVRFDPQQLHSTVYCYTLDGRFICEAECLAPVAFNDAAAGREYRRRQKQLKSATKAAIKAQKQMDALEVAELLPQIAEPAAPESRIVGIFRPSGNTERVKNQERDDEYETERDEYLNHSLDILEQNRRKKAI

B1: native Mu transposon end (dsDNA)
DNA 1: GTTTTCGCATTTATCGTGAAACGCTTTCGCGTTTTTCGTGCGCCGCTTCA
DNA 2: TGAAGCGGCGCACGAAAAACGCGAAAGCGTTTCACGATAAATGCGAAAAC
On to B1, for which, in the data set with MuA transposase [1], the binding result is “binds”.

B2: Mu end modified at 10th and 11th bases (dsDNA)
DNA 1: GTTTTCGCATTTATCGTGAAACGCTTTCGCGTTTTTCGTCAGCCGCTTCA
DNA 2: TGAAGCGGCTGACGAAAAACGCGAAAGCGTTTCACGATAAATGCGAAAAC
With B2, the binding result with MuA transposase [2] is given as “binds”.

B3: Mu end with GTCA key (dsDNA)
DNA 1: GTTTTCGCATTTATCGTGAAACGCTTTCGCGTTTTTCGTGCGCCGCGTCA
DNA 2: TGACGCGGCGCACGAAAAACGCGAAAGCGTTTCACGATAAATGCGAAAAC
On to B3, for which the binding result in the data set with MuA transposase [3] is on record as “binds”.

B4: Mu end with TGCA key (dsDNA)
DNA 1: GTTTTCGCATTTATCGTGAAACGCTTTCGCGTTTTTCGTGCGCCGCTGCA
DNA 2: TGCAGCGGCGCACGAAAAACGCGAAAGCGTTTCACGATAAATGCGAAAAC
As for B4, the binding result in the data set with MuA transposase [3] was “binds”.

B5: Mu end with 3' TCAG key (dsDNA)
DNA 1: GTTTTCGCATTTATCGTGAAACGCTTTCGCGTTTTTCGTGCGCCGCTCAG
DNA 2: CTGAGCGGCGCACGAAAAACGCGAAAGCGTTTCACGATAAATGCGAAAAC
B5: in the data set with MuA transposase [4], the binding result is given as “no binding”.

B6: Mu end with internal TCAG key (5th, 6th, 8th bases) (dsDNA)
DNA 1: GTTTTCGCATTTATCGTGAAACGCTTTCGCGTTTTTCGTGCGTCAGTTCA
DNA 2: TGAACTGACGCACGAAAAACGCGAAAGCGTTTCACGATAAATGCGAAAAC
Take B6: the binding result in the data set with MuA transposase [5] is reported as “binds”.
